Reference: US5663314

How the values were obtained:
Band-3 peptide = target: T1, Band-3 peptide
T1 sequence (peptide): MEELQDDYEDDMEERR

ETE peptide = target: T2, ETE peptide
T2 sequence (peptide): RRREEETEEE

[1] = target: Heat-denatured ERK2 (Rattus norvegicus (Rat)) (UniProt P63086)
RR-SRC peptide = target: T3, RR-SRC peptide
T3 sequence (peptide): RRLIEDAEYAARG

[2] = target: Recombinant ERK2 expressed in E. coli (Rattus norvegicus (Rat)) (UniProt P63086)
S6 peptide = target: T4, S6 peptide
T4 sequence (peptide): RRLSSLRA

Syntide-2 = target: T5, Syntide-2
T5 sequence (peptide): PLARTLSVAGLPGKK

TEY peptide = target: T6, TEY peptide
T6 sequence (peptide): PEHDHTGFLTEYVATRWYR

[3] = target: bovine myelin basic protein (bovine) (UniProt P02687)
Sequence of bovine myelin basic protein (bovine) (P02687 whole entry): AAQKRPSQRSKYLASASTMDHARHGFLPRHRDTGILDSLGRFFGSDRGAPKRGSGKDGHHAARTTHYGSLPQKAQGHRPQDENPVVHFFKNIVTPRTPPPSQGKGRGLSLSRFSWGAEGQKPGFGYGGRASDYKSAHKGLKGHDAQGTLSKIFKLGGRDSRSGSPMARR

- Phosphorylation (Band-3 peptide): < 0.005 nmol/min/mg
- Phosphorylation (Casein): < 0.005 nmol/min/mg
- Phosphorylation (Denatured enolase): < 0.005 nmol/min/mg
- Phosphorylation (ETE peptide): < 0.005 nmol/min/mg
- Phosphorylation [1]: < 0.005 nmol/min/mg
- Phosphorylation (Histones): 0.04 nmol/min/mg
- Phosphorylation (Kemptide): < 0.005 nmol/min/mg
- Phosphorylation (Protamine): 0.03 nmol/min/mg
- Phosphorylation (RR-SRC peptide): 0.005 nmol/min/mg
- Phosphorylation (Raf-1): < 0.01 nmol/min/mg
- Phosphorylation [2]: 60 nmol/min/mg
- Phosphorylation (Ribosomal S6 protein): < 0.005 nmol/min/mg
- Phosphorylation (S6 peptide): 0.07 nmol/min/mg
- Phosphorylation (Syntide-2): 0.04 nmol/min/mg
- Phosphorylation (TEY peptide): 0.005 nmol/min/mg
- Phosphorylation [3]: 0.12 nmol/min/mg
- Phosphorylation (poly (Glu^80 -Tyr^20)): < 0.005 nmol/min/mg
B1: MAPK activator 2 (MAPKK1b), 45 kDa polypeptide purified from EGF-stimulated A431 cells (enzyme)
chain: MPKKKPTPIQLNPAPDGSAVNGTSSAETNLEALQKKLEELELDEQQRKRLEAFLTQKQKVGELKDDDFEKISELGAGNGGVVFKVSHKPSGLVMARKLIHLEIKPAIRNQIIRELQVLHECNSPYIVGFYGAFYSDGEISICMEHMVIKGLTYLREKHKIMHRDVKPSNILVNSRGEIKLCDFGVSGQLIDSMANSFVGTRSYMSPERLQGTHYSVQSDIWSMGLSLVEMAVGRYPIPPPDAKELELMFGCQVEGDAAETPPRPRTTPGRPLSSYGMDSRPPMAIFQLLDYIVNEPPPKLPSGVFSLEFQDFVNKCLIKNPAERADLKQLMVHAFIKRSDAEEVDFAGWLCSTIGLNQPSTPTHAAGV
